# Experimental data from patent publication US20220204643A1 (published 2022).
# T1: calcium and integrin binding 1, transcript variant b (human, UniProt Q99828 2-191)
# T1 construct: on protein array; also called CIB1
# T1 sequence: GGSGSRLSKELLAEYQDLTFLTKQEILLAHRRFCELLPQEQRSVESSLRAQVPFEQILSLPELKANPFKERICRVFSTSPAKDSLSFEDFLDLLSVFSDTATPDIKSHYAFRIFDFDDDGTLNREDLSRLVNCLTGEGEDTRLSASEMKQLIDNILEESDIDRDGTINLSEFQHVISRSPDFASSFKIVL
# T2: HAUS augmin like complex subunit 1, transcript variant 1 (human, UniProt Q96CS2 1-278)
# T2 construct: on protein array; also called HAUS1
# T2 sequence: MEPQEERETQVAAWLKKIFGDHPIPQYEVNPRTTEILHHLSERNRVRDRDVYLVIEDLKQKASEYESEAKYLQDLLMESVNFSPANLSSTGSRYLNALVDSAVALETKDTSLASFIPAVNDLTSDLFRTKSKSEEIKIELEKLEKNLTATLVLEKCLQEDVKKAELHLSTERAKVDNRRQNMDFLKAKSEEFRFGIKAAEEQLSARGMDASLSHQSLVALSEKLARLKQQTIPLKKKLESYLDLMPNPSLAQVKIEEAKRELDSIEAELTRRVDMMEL
# T3: Transforming growth factor beta 3 (human, UniProt P10600 24-412)
# T3 construct: on protein array; also called TGFB3
# T3 sequence: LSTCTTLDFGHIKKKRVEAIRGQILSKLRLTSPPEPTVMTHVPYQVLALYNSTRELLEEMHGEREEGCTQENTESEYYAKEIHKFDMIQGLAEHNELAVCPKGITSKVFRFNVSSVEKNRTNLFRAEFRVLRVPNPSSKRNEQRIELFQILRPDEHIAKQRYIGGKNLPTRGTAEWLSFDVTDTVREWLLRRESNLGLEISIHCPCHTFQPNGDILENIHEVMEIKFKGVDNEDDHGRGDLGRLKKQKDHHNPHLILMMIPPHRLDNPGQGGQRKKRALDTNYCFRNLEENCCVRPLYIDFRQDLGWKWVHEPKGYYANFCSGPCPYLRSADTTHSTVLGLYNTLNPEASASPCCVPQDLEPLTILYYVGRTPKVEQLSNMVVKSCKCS
# T4: NFKB inhibitor beta, transcript variant 1 (human, UniProt Q15653 1-356)
# T4 construct: on protein array; also called NFKBIB
# T4 sequence: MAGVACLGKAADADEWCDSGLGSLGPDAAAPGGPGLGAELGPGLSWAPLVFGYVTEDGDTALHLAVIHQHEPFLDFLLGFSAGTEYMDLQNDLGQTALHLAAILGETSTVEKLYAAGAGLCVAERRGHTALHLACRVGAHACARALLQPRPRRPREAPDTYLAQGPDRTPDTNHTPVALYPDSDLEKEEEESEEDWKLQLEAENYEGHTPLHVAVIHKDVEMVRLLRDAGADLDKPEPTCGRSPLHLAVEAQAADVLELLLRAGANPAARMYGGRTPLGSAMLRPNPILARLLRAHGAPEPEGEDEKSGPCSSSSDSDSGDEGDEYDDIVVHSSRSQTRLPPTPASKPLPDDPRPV
# T5: cyclin dependent kinase 2 associated protein 2, transcript variant 1 (human, UniProt O75956 1-126)
# T5 construct: on protein array; also called CDK2AP2
# T5 sequence: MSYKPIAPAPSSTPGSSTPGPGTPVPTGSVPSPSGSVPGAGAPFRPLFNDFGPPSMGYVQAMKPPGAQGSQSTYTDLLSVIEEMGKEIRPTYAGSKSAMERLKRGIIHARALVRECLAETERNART
# T6: zinc finger DHHC-type containing 1, transcript variant 1 (human, UniProt Q8WTX9 1-485)
# T6 construct: on protein array; also called ZDHHC1
# T6 sequence: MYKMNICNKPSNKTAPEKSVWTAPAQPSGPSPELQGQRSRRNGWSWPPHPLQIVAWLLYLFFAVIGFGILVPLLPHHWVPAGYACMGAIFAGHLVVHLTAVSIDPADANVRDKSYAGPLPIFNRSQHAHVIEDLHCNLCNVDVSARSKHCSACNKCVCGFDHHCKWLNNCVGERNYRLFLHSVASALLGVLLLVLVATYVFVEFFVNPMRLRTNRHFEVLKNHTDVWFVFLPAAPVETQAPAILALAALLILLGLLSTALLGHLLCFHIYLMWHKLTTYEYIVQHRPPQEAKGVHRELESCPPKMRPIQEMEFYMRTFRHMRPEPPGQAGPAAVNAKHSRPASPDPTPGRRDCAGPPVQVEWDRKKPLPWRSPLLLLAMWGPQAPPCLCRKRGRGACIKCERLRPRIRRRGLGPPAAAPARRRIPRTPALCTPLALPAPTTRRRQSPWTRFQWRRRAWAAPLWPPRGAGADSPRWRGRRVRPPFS
# B1: TBRE1007 (antibody, V domains shown)
# VH: QVQLQESGPGLVRPSETLSLTCDVSGYLISSGYYWGWVRQPPGKGLEWIGSVYHSGNAYYNPSLKGRVTMSVDTSKNQFSLKLTSVAAEDTAVYYCAREHRSGYQRYWGQGTLVTVSS
# VL: IQMTQSPSSLSASVGDRVTITCRASQAIANSLAWYQQRPGKAPKLLIYAASSLESGVPSRFSGSGSGTDYTLTISSLQPEDFATYYCQQYYINPRTFGQGTKVEIKR
# notes: VH/VL only
# B2: TSTO1001 (antibody, V domains shown)
# VH: VVQLLESGGGLVHPGGSLRISCAASEFTFSAYAMTWVRQAPGKGLEWVSAISGSGGRTYYADSLKGRFTISRDNSKHTLYLLMNSLRVEDTAVYYCASRYRSPSGAFDIWGQGTLVTVSS
# VL: EIVMTQSPATLSVSQGERATLSCRASQSVGSDLAWYQQKPGQAPRLLIYDASARATDIPARFSGSGSETEFTLTISSLQSEDFAVYYCQHYSDWRALTFGGGTKVEIKR
# notes: VH/VL tied via antigen in summary, not by name in this stretch
# B3: TSTO1002 (antibody, V domains shown)
# VH: EVQLVESGGGLVKPGGSLRLSCAASGFTFSNAWMNWVRQTPGKGLEWVGRIKTKTDGGTTDYAEPVKGRFTISRDDSKNTLYLQMNSLKTEDTAVYYCTRGAVADYWGQGTQVTVSS
# VL: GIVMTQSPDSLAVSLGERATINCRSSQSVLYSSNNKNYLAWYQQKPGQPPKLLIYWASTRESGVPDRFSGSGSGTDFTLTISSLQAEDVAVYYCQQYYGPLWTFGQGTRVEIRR
# notes: as for B2
# B4: TSTO1003 (antibody, V domains shown)
# VH: QVQLKQSGGGVVQPGRSLTLSCVASGLTFSDYGMHWVRQAPGKGLEWVAVIWHDGSKTNYADSVKGRIIISRDNSKSTVYLQMNRLRGEDTAVYYCATSHGGLVPGGENYWGQGTLVTVSS
# VL: SDELTQPPSVSVSPGQTARITCSGDALAKEYAYWYQQKSGQAPVLVISKDTERPSGIPARFSGSSSGTTVTLTISGVQSDDEADYYCQSADSSLTYWLFGGGTKLTVLR
# notes: as for B2
# B5: TSTO1004 (antibody, V domains shown)
# VH: QVQLVQSGSELKKPGASVKVSCTSSGYVFTSFGVSWVRQVPGQGPEWMGWISPYTRQTKYAQSLQGRITLTADTSTNTTYMELRSLRSDDTAMYYCVREEFGVVRGPNPFDVWGQGTMVTVSS
# VL: DIQMTQAPSTLSASVGDRVSITCRASQNIRDFLAWYQQKPGRAPDLLIYRASTLEKGVSARFSGSGSGTEFTLTITGLQPDDFATYYCQQYSDYSTFGGGTRVEIK
# notes: as for B2
# B6: TSTO1005 (antibody, V domains shown)
# VH: EVQLVESGGGVVQPGGSLRLSCAASGFTFEDFGMHWVRQAPGKGLEWVAFTRFDGSEKYYVDSVKGRFTVSRDNSKNTLFLHMNSLRPEDTAVYYCAKTRSYSSADTTRPNAPGYWGQGTLVTVSS
# VL: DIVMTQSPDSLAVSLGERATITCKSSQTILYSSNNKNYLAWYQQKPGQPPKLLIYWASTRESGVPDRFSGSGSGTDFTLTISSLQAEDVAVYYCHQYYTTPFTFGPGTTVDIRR
# notes: as for B2
# B7: TBLA1003 (antibody, V domains shown)
# VH: EVQLVESGGGLIQPGRSLRLSCAASGFTFEDYAMHWVRQAPGKGLEWVSGISWNSGNIGYADSVKGRFTISRDNAKNSLYLQMHSLRPEDTALYYCAKDINFFGLGTGGGAMDVWGQGTTVTVSS
# VL: DIQMTQSPSYVSASVGDRVTITCRASQGIDVWLAWYQQKPGKAPKLLIYTASSLQSGVPSRFSGSGGGTEFTLTISSLQPEDFATYYCQQSNSFPGTFGPGTKVDVKR
# notes: VH/VL only
# Experiments:
# Test in all cases: protein array
# [1] = target: T7, actinin alpha 1, transcript variant 2 (human, UniProt P12814 1-892)
# T7 construct: on protein array; also called ACTN1
# T7 sequence (P12814 whole entry, change not shown): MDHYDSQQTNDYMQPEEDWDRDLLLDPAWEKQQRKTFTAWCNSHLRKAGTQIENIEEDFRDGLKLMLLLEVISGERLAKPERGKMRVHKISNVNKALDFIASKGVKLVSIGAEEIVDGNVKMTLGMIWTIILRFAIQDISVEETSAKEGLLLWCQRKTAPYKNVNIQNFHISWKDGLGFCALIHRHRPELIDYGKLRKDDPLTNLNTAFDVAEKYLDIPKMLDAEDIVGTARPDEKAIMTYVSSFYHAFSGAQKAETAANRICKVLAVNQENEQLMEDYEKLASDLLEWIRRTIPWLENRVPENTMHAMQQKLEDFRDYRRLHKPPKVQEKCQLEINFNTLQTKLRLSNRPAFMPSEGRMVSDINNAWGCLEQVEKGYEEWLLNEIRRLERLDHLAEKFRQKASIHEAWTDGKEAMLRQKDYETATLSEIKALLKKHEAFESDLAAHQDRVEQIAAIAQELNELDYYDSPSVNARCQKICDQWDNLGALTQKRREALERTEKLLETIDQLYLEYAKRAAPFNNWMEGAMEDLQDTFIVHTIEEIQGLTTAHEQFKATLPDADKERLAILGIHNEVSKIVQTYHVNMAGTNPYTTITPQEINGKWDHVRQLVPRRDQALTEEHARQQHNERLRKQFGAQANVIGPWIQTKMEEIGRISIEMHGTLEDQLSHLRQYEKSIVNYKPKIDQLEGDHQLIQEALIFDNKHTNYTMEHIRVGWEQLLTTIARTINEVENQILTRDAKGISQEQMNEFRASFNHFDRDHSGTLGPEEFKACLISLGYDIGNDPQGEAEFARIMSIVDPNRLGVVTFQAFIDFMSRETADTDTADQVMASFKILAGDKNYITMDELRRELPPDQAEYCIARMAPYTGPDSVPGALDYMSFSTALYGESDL
# [2] = target: T8, dual specificity phosphatase 12 (human, UniProt Q9UNI6 1-340)
# T8 construct: on protein array; also called DUSP12
# T8 sequence (Q9UNI6 whole entry): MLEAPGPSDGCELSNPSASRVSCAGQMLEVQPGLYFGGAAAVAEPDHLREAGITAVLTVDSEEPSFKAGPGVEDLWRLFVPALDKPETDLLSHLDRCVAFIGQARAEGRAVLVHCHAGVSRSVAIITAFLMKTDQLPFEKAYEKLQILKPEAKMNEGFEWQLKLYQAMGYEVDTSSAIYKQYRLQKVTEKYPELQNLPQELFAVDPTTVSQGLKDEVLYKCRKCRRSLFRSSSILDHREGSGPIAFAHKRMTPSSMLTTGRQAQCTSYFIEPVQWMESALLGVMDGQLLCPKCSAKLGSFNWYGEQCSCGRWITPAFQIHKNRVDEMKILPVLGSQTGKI
# [3] = target: T1, calcium and integrin binding 1, …
# [4] = target: T2, HAUS augmin like complex subunit 1, …
# [5] = target: T3, Transforming growth factor beta 3
# [6] = target: T9, chymotrypsinogen B2 (human, UniProt Q6GPI1 19-263)
# T9 construct: on protein array; also called CTRB2
# T9 sequence (Q6GPI1 19-263 limits assumed): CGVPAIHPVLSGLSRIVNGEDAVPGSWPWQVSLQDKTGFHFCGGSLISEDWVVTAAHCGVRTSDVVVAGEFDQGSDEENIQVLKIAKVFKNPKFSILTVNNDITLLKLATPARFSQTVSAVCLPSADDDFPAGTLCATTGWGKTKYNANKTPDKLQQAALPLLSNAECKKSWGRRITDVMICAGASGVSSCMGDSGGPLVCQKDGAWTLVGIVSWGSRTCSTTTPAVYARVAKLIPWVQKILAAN
# [7] = target: T4, NFKB inhibitor beta, transcript variant …
# [8] = target: T5, cyclin dependent kinase 2 associated …
# [9] = target: T6, zinc finger DHHC-type containing 1, …
binder,measurement,setting,value
B1,binding result,[1],binds
same,binding result,[2],binds
B2,binding result,[3],binds
B3,binding result,[4],binds
B4,binding result,[5],binds
B5,binding result,[6],binds
B6,binding result,[7],binds
same,binding result,[8],binds
B7,binding result,[9],binds
